# Assay: yeast display, Sf9 membrane polyspecificity reagent, FACS + sequencing; frameworks hold sequencing errors
# In short: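 A nanobody's polyreactivity label depends on the gate it was sorted from. Yeast display cells were stained with 10% biotinylated, detergent-solubilized Sf9 membrane reagent for 1 hour at 4 °C, enriched on streptavidin microbeads and sorted by FACS. The low and high (top ~1%) gates were set on anti-HA fluorescence for expression and streptavidin fluorescence for reagent binding.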
row,Sequence,polyreactivity (PSR sort gate)
1,QVQLVESGGGLVQAGGSLRLSCAASGRTLSYYAMGWYSQAPGKERELVAAITWNGGRTYYADSVKGRFTISRDNAKNTVYLQMNSRKPEDTAVYYCNAVYSPRYYVGGYDYWGQGTQVTVSS,high polyreactivity
2,QVQLVESGGGLVQAGGSLRLSCAASGRTLTQNAMGWYRQAPGKERELVATISWTAGSTYYADSVKGRFTISRDNAKNTVYLQMNSLKPEDTAVYYCAADVFYSIYDYWGQGTQVTVSS,low polyreactivity
3,QVQLVESGGGLVQAGGSLRLSCAASGRTLVKYAMGWYRQAPGKERELVAAISSGGGTYYADSVKGRFTISRDNAKNTVYLQMNSLKPEDTAVYYCATPYYRRYAAPGYDYWGQGTQVTVSS,low polyreactivity
4,QVQLVESGGGLVQAGGSLRLSCAASGRTLVSNAMGWYRQAPGKERELVARISYRGGSTYYADSVKGRFTISRDNAKNTVYLQMNSLKPEDTAVYYCAAGVRGSGRRMEYWGQGTQVTVSS,high polyreactivity
5,QVQLVESGGGLVQAGGSLRLSCAASGRTLVYYAMGWYRQAPGKERELVAAITSVGSTNYADSVKGRFTISRDNAKNTVYLQMNSLKPEDTAVYYCAVRRVVARYDHWGQGTQVTVSS,low polyreactivity
6,QVQLVESGGGLVQAGGSLRLSCAASGRTLWSYVMGWYRQAPGKERELVAAITSGGTTYYADSVKGRFTISRDKAKNTVYLQMNSLKPEDTAVYYCAAGKYYLRLLPYGYWGQGTQVTVSS,high polyreactivity
7,QVQLVESGGGLVQAGGSLRLSCAASGRTLYGYTMGWYRQAPGQEREVVAAINAGGGSTYYADSVKGRFTSSRDNAKNTVYLQMNSLKPEDTAVYSCNARVRVRLGRNWSSYYYWGQGTQVTVSS,high polyreactivity
8,QVQLVESGGGLVQAGGSLRLSCAASGRTLYIYAMGWYRQAPGKERELVAAITRRGDSTYYADSVKGRFTISRDNAKNTVYLQMNSLKPEDTAVYYCAADFQDTSSQYDPAYEYWGQGTQVTVSS,low polyreactivity
9,QVQLVESGGGLVQAGGSLRLSCAASGRTLYRNDMGWYIQAPGKERELVARITWSGASTYYADSVKGRFTISRDNAKNSVYLQMKSLKTEDTAVYFCAALYLSRRYGPDDSYNFWGQGTQVTVSS,high polyreactivity
10,QVQLVESGGGLVQAGGSLRLSCAASGRTLYVNAMGSYRQAPGKERELVARISSGSSTNYADSVKGRFTISRDNAKNTVYLQMNSLKPEHTAVYYCAARYTARRQSYGYWGQGTQVTVSS,high polyreactivity
11,QVQLVESGGGLVQAGGSLRLSCAASGRTLYWYAMGWYRQAPGKERQLVAVISGSGASTYYADSVKGRFTISRDNAKNTVYLQMNSLKPEDTAVYYCNARDYRRYGRYHWQDYDYWGQGTQVTVSS,high polyreactivity
12,QVQLVESGGGLVQAGGSLRLSCAASGRTLYYYAMGWYRQAPGKEMDLVASISRGGNTNYADSVKGRFTISRDNAKNSVYLQMYSLKPEDTAVYYCAAQYSPYSFSQYVYWGQGTQVTVSS,high polyreactivity
13,QVQLVESGGGLVQAGGSLRLSCAASGRTLYYYTMGWYRPAPGKERELVAAIRWSTGSTYYADSVKGRFTISRDNAKNTVYLQMNSLKPEDTAVYYCNAYRYQWAQSTEYDYWGQGTQVTVSS,high polyreactivity
14,QVQLVESGGGLVQAGGSLRLSCAASGRTMNSNAKGSYRQAPGKEREFVAAITSGGSTNYADSVKGRFSLSRDNAKNTVYLQMTSLKPEDTAVYYCAVRGYWTIRCRRYYYWGHGTQVTVSS,high polyreactivity
15,QVQLVESGGGLVQAGGSLRLSCAASGRTSAIYDMGWYRQAPGKERDLVAAIDYSDGSTYYADSVKGRFTISRDNAKYTVYLQMNSLKPEDTAVYYCAADYDAIYLWWGYDYWGQGTQLTVSS,low polyreactivity
16,QVQLVESGGGLVQAGGSLRLSCAASGRTSGFNTMGWYRPAPGKEREMVAAISFSGGSTYYADSVKGRFTISRDNAKNTVYLQMNSLKPEDTAVYYCNALYRYLYRSGDYWGQGTQVTVSS,low polyreactivity
17,QVQLVESGGGLVQAGGSLRLSCAASGRTSKVYAMGWYRQAPGTERELVAAITRGNTYYADSVKGRFTISRDNAKNTVYLQMNSLKPEDTAVYYCAADYRYWLSYFKKYDYWGQGTQVTVSS,high polyreactivity
18,QVQLVESGGGLVQAGGSLRLSCAASGRTSQEYAMGWYRQAPGKERELVAGITRRGGTTYYADSVKGRFTISRDNAKNTVYLQMNRLNPEDTAVYYCAKRYTHSFKYEYWGQCTQVTVSS,high polyreactivity
19,QVQLVESGGGLVQAGGSLRLSCAASGRTSRDYAMGWYRQAPGKERELVAAIRWRGVSTYYADSVKGRFTISRDNAKNTVYLQMNSLKPEDTAVYYCAKRESVSTSAGKGAMDSWGQGTQVTVSS,high polyreactivity
20,QVQLVESGGGLVQAGGSLRLSCAASGRTSRFYAMGWYRQAPGKERELVARITTRGGSTYYADSVKGRFTISRDNAKNTVYLQMNSLKPEDTAVYYCNAERAGTYRYDYWGQGTQVTVSS,high polyreactivity
21,QVQLVESGGGLVQAGGSLRLSCAASGRTSRLYAMGWYRQAPGKERELVATITRSAGDTYYADSVKGRFTISRDNAKNTVYLQMNSLKPEDTAVYYCNARAAKWSRYDYWGQGTQVTVSS,high polyreactivity
22,QVQLVESGGGLVQAGGSLRLSCAASGRTSRRNAMGWYRQAPGKERELVAATSGSGTSTYYADSVKGRFTISRDNAKNTVYLQMNSLKPEDTAVYYCNTDTSRRAVQYDYWGQGTQVTVSS,high polyreactivity

row,Sequence,polyreactivity (PSR sort gate)
1,QVQLVESGGGLVQAGGSLRLSCAASGRTSRVNAMGWYRQAPGKERELVATITKSGGSTFYADSVKGRFTISRDNAKNTVYLQMNILKPEDTAVYYCNAGGVRATKGYDYWGQGTQVTVSS,low polyreactivity
2,QVQLVESGGGLVQAGGSLRLSCAASGRTSRVNAMGWYRQAPGKERELVATITKSGGSTFYADSVKGRFTISRDNPKNTVYLQMNILKPEDTAVYYCNAGGVRATKGYDYWGQGTQVTVSS,low polyreactivity
3,QVQLVESGGGLVQAGGSLRLSCAASGRTSRYALGWYRQAPGKERELVAAISRNGGTTSYADSVKGRFTISRDNAKNTVYLQMNSLKPEDTAVYYCNAYSAFVPPTRGYYWGQGTQVTVSS,high polyreactivity
4,QVQLVESGGGLVQAGGSLRLSCAASGRTSSVYARGWSRQAPGKEREWVAAITSSGGSTYYADSVKGRFTISRDNAKNTVYLQMNSLNPEDTAVYYCAAETYPVWGVAFYYWGQGTQVTVSS,high polyreactivity
5,QVQLVESGGGLVQAGGSLRLSCAASGRTSVSYAMGWYRQAPGKERELVASITSGGSTYYADSVKGRFTISRDNAKNTVYLQMNSLKPEDTAVYYCAARGRNVAGYKGGYWGQGTQVTVSS,high polyreactivity
6,QVQLVESGGGLVQAGGSLRLSCAASGRTSWPYAMGWYRQAPGKERELVAGISRNGGRTYYADSVKGRFTISRDNAKNTVYLQMNSLKPEDTAVYYCNAYPPSRHDYWGQGTQVTVSS,high polyreactivity
7,QVQLVESGGGLVQAGGSLRLSCAASGRTSWVNAMGWYRQAPGKERELVAAIVSGGTTKYADSVKGRFTISRDNAKNTVYLQMNSLKPEDTAVYYCAVRYSKRSVYTYGFNYWGQGTQVTVSS,high polyreactivity
8,QVQLVESGGGLVQAGGSLRLSCAASGRTSYGYAMGWYRQAPGKERELVAGISRSGSSTYYADSVKGRFTISRDNAKNTVYLQMNSMKPEDNAVYYCNAARPFNRVPRQTWKMGYWGQGTQVTVSS,high polyreactivity
9,QVQLVESGGGLVQAGGSLRLSCAASGRTSYVYAMGWYRQAPGKERELVAAITSSGGSTYYADSVKGRFTISRDNAKNTVYLQMNSLKPEDTAVYYCAASRVRYSYGYPYYYWGQGTQVTVSS,high polyreactivity
10,QVQLVESGGGLVQAGGSLRLSCAASGRTSYYAMGWYRQAPGKERELVAAINSGDSTTYADSVKGRFTISRDNAKNNVYLQMNSLKPEDTAVYYCATALYDWYSLEFDYWGQGTQVTVSS,low polyreactivity
11,QVQLVESGGGLVQAGGSLRLSCAASGRTSYYAMGWYRQAPGKETELVAAINSGDSPTDADSVKGRFTISRDNAKNTVYLQMNTQTPEDTAVYYCATALYDWYSLEFDYWGQGTQVTVSS,low polyreactivity
12,QVQLVESGGGLVQAGGSLRLSCAASGRTSYYNTMGWYRPAPGKERELVAASTGRGDSTYYADSVKGRFTISRDNAKKTGYLQMNSLKPEDTAVYYCAADELHLLYRVSKFVDYNHWGQGTQVTVSS,low polyreactivity
13,QVQLVESGGGLVQAGGSLRLSCAASGRTVGGNAMGWYRQAPGKERELVAAINRSGGTTYYADSVKGRFTISRDNAKNTVYLQMNSLKPEDTAVYYCAARRTVSATRMGYWGQGTQVTVSS,high polyreactivity
14,QVQLVESGGGLVQAGGSLRLSCAASGRTVLVYTMGWYRQAPGKERELVAAISWSDGSTYYADSVKGRFTMSRDNAKNTVYLHMNSLKPEDTAVYYCAARTFSAFWRGGYDYWGQGTQVTVSS,low polyreactivity
15,QVQLVESGGGLVQAGGSLRLSCAASGRTVNAMGWYRQAPGKERELVAAINSGTSTYADSVKGRFTISRDNAKNTVYLQMNSLKPEDTAVYYCAKTYFWPFHGRFVGYDYWGQGTQVTVSS,low polyreactivity
16,QVQLVESGGGLVQAGGSLRLSCAASGRTVSSNAMGWYRQAPGKERELVASISFRGGRTYYADSVKGRFTISRDNAKNPVYLQMNSLKPEDTADYYCVSGTKRTGYGYWGQGTQVTVSS,high polyreactivity
17,QVQLVESGGGLVQAGGSLRLSCAASGRTVWSNAMGWYRQAPGKEREFVASISRTGVNTYYADSVKGRFTISRDYAKNSVYLQMNSLKPEDTAVYYCNVYSARRGVGTLARYSEYDYWGQGTQVTVSS,high polyreactivity
18,QVQLVESGGGLVQAGGSLRLSCAASGRTVYSYAMGWYRQAPGKERELVAAISYTGASTFYADSVKGRFTISRDNAKNTVYLQMNSLKPEDTAVYYCAAESQPSYGETDEYWGQGTQVTVSS,high polyreactivity
19,QVQLVESGGGLVQAGGSLRLSCAASGRTWFYAMGWYRQAPGKERELVAVISRSGASTNYADSVKGRFTISRDNAKNTVYLQMNSLKPEDTAVYYCAAGWRYRGGYWYPRLEYGYWGQGTQVTVSS,high polyreactivity
20,QVQLVESGGGLVQAGGSLRLSCAASGRTWSNAMGWYRQAPGKERELVAVITWDGVITYYADSVKGRFTISRDNAKNTVYLQMNSLKPEETAVYYCAATVYPGAGDYWGQGTQVTVSS,high polyreactivity
21,QVQLVESGGGLVQAGGSLRLSCAASGRTYAYYAIGWYRQEPGKERELVAAISSGGSTYYADSVKGLFTISRDNAKNTVYLQMNSLKPEDTAVNYCATRDKQYYYWGQGTQVTLSS,high polyreactivity

# Source: the nanobody polyreactivity screen of Harvey et al. (2022)
